Assay results from paper PMC9927289, “Control of Cell Size by c-di-GMP Requires a Two-Component Signaling System in the Cyanobacterium Anabaena sp. Strain PCC 7120” (Microbiology Spectrum, 2023).

B1: CdgS (All2874) (Nostoc sp. PCC 7120 = FACHB-418) (protein)
chain: MKNTVPESQCLILIVDDEPFIRAQLRLSLQCEGYRTAEAEDGRQALAIFQELQPDIVLLDAIMPDLDGFECCTRLQLLEDGKYTPVLMITGLEDQESVDRAFEVGAIDYVTKPIHWPVLRQRVKRLIQQFHLQQKLEAANRELQRLVTIDELTQVANRRRFEEYCAQEWQRMARDQLPLSLILCDVDFFKAYNDTYGHRAGDRCLQLVAKAIESCVNRPADVVARYGGEEFAVILPRTYPDGAIHLANAICTAVRELQITHLTSQANTCVTISAGVATEIPVPNSDFQEIINAADRALYQAKMTGRDGCQQYIKQSSSPVYFLNAHHRLA
notes: REC-GGDEF response regulator; recombinant from E. coli BL21(DE3), pHTwinStrep vector (two tandem C-terminal Strep-tags)
B2: CdgS (All2874) (Nostoc sp. PCC 7120 = FACHB-418; D60A) (protein)
chain: MKNTVPESQCLILIVDDEPFIRAQLRLSLQCEGYRTAEAEDGRQALAIFQELQPDIVLLAAIMPDLDGFECCTRLQLLEDGKYTPVLMITGLEDQESVDRAFEVGAIDYVTKPIHWPVLRQRVKRLIQQFHLQQKLEAANRELQRLVTIDELTQVANRRRFEEYCAQEWQRMARDQLPLSLILCDVDFFKAYNDTYGHRAGDRCLQLVAKAIESCVNRPADVVARYGGEEFAVILPRTYPDGAIHLANAICTAVRELQITHLTSQANTCVTISAGVATEIPVPNSDFQEIINAADRALYQAKMTGRDGCQQYIKQSSSPVYFLNAHHRLA
notes: as for B1

Tests used:
[1] = substrate: Nc1nc2c(ncn2[C@@H]2O[C@H](COP(=O)(O)OP(=O)(O)OP(=O)(O)O)[C@@H](O)[C@H]2O)c(=O)[nH]1; assay: diguanylate cyclase assay, Michaelis-Menten and Lineweaver-Burk; format: biochemical, Nostoc sp. PCC 7120 = FACHB-418; settings: c-di-GMP synthesis; GTP varied
Source text: diguanylate cyclase assay, Michaelis-Menten and Lineweaver-Burk on CdgS (All2874) | kinetic curves for c-di-GMP synthesis of CdgS and CdgS^D60A followed Michaelis–Menten kinetics

[2] = substrate: Nc1nc2c(ncn2[C@@H]2O[C@H](COP(=O)(O)OP(=O)(O)OP(=O)(O)O)[C@@H](O)[C@H]2O)c(=O)[nH]1; assay: as above; format: biochemical, Nostoc sp. PCC 7120 = FACHB-418; settings: c-di-GMP synthesis; GTP varied; remark: listed apart in the source
Source text: diguanylate cyclase assay, Michaelis-Menten and Lineweaver-Burk on CdgS (All2874) | CdgS^D60A could still synthesize c-di-GMP using GTP as the substrate

Row | Protein | Km [1] [µM] | kcat [1] [s⁻¹] | Km [2] [µM] | kcat [2] [s⁻¹]
1 | B1 | 5.84 | 73.68 |  | 
2 | B2 |  |  | 6.33 | 60.53
